The text below walks through data of publication PMC3267196.

One data set deals with Asp217 (UniProt position 217, GFSFLDLHGLR). The data set can be described thus: IR (time-resolved FTIR, quoted from ref 74). The following applies: Unphotolysed ASR; the protonation state of Asp217 is inferred from whether it accepts a proton on M formation; cited from earlier work.
Another data set has as its target Glu36 (UniProt position 36, GVPQYEYLVAM). The data set can be described thus: IR (low-temperature light-induced difference FTIR). The note with it: 170 K, 2 mM sodium phosphate (pH 7.0) for washing liposomes.

Consider “Anabaena sensory rhodopsin (ASR), as studied by Shi et al. 2006 (Anabaena (Nostoc) sp. PCC 7120)”, for which the pKa result in the data set with Asp217 was “between 6 and 7”.
Regarding “Anabaena sensory rhodopsin (ASR) (Anabaena (Nostoc) sp. PCC 7120)”, the pKa entry was “between 6 and 7” with Glu36 (buffers for pH 5 and 9 not stated, Dark-adapted ASR (97% all-trans retinal), unphotolysed state versus L intermediate formed by >580 nm illumination); “about 7” with Glu36 (not stated for pH 5 and 9, Dark-adapted ASR (predominantly all-trans), unphotolysed state bands in the L minus ASR difference spectrum).
